Source: patent US20250346655 (published 2025)

Columns and labels:
alpha-synuclein oligomer = alpha-synuclein oligomer (human, UniProt P37840); assay: SPR
[1] = molecular target: alpha-synuclein sonicated fibrils (human, UniProt P37840); assay: SPR
alpha-synuclein monomer = alpha-synuclein monomer (human, UniProt P37840); assay: SPR
[2] = molecular target: alpha-synuclein physiologic tetramer (human, UniProt P37840); assay: SPR
beta-synuclein monomer = beta-synuclein monomer (human, UniProt Q16143); assay: ELISA
gamma-synuclein monomer = gamma-synuclein monomer (human, UniProt O76070); assay: ELISA
gamma-synuclein monomer, sequence (O76070 whole entry): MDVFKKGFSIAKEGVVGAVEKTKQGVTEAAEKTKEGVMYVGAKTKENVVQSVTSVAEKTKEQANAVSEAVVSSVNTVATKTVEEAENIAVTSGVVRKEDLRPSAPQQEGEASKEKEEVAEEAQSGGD

beta-synuclein monomer, sequence (Q16143 whole entry): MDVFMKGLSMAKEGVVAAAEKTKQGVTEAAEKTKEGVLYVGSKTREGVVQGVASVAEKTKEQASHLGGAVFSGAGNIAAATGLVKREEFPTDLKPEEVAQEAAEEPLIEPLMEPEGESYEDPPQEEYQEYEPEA

Row | Kd (alpha-synuclein oligomer) | Kd [1] | binding result (alpha-synuclein monomer) | binding result [2] | binding result (beta-synuclein monomer) | binding result (gamma-synuclein monomer) | Binder
1 | 431 nM | 9 nM | no binding | no binding | no binding | no binding | 2E9 (antibody, V domains shown) VH: EVKLLESGGGLVQPGGSLKLSCAASGFDFSRYWMNWVRQAPGKGLEWIGEINPHSSTINYAPSLKDKFIISRDNAKNTLYLQMSKVRSEDTALYYCGRGDYVDYWGLGTTLTVSS VL: DIVMSQSPSSLAVSVGEKVTMSCKSSQSLLYSRNQKNYLAWYQQKPGQSPKLLIYWASTRESGVPDRFTGSGSGTDFTLTISSVKADDLAVYYCQQYYSYPRTFGGGTKLEIK
2 | 985 nM | 8 nM | no binding | no binding | – | – | 12B12 (antibody, V domains shown) VH: EVQLQQSGAELVKPGASVKLSCTASGFNIKDTYIHWVKQRPEQGLEWIGRIDPANGNTNYDPKFQDKATITADTSSNTAYLQFSSLTSEDTAVYYCSNWDYFDYWGQGTTLTVSS VL: not shown
3 | 1610 nM | 20 nM | no binding | no binding | – | – | 12G1 (antibody, V domains shown) VH: QIQLVQSGPELRKPGETVRISCKASGYTFTTAGMQWVQKMPGKGLKWIGWINTHSGVPKYAEDFKGRFAFSLETSASTAYLQISNLKNEDTATYFCARTSWAPYWGQGTLVTVSA VL: not shown
